The text below walks through data of PMC2700399 (The Journal of Cell Biology, 2009).

For one test, the target named is T1, TAP-tagged Ndc1 (S. cerevisiae, UniProt P32500 1-655).
T1 sequence (looked up): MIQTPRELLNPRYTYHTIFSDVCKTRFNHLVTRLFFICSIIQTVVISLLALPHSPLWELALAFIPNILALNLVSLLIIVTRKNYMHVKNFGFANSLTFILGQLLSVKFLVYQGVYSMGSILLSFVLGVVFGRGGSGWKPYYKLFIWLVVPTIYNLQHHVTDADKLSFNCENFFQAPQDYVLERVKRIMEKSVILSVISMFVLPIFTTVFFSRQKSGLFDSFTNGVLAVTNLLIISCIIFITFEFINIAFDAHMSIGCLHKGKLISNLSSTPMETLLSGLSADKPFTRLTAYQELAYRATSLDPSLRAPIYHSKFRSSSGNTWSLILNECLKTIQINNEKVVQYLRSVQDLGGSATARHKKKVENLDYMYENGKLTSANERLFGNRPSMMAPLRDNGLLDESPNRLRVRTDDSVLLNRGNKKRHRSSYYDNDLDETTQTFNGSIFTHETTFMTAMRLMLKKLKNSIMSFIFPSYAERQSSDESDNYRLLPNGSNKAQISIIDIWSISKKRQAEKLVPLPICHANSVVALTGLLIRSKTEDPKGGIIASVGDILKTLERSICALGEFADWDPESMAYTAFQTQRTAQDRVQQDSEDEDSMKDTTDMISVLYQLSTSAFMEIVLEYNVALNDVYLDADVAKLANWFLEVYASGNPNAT
Description: pull-down.

The target in the next test is TAP-Nup170 (S. cerevisiae, UniProt P38181 1-1502). Kind of test: pull-down.
Sequence of TAP-Nup170 (P38181 whole entry): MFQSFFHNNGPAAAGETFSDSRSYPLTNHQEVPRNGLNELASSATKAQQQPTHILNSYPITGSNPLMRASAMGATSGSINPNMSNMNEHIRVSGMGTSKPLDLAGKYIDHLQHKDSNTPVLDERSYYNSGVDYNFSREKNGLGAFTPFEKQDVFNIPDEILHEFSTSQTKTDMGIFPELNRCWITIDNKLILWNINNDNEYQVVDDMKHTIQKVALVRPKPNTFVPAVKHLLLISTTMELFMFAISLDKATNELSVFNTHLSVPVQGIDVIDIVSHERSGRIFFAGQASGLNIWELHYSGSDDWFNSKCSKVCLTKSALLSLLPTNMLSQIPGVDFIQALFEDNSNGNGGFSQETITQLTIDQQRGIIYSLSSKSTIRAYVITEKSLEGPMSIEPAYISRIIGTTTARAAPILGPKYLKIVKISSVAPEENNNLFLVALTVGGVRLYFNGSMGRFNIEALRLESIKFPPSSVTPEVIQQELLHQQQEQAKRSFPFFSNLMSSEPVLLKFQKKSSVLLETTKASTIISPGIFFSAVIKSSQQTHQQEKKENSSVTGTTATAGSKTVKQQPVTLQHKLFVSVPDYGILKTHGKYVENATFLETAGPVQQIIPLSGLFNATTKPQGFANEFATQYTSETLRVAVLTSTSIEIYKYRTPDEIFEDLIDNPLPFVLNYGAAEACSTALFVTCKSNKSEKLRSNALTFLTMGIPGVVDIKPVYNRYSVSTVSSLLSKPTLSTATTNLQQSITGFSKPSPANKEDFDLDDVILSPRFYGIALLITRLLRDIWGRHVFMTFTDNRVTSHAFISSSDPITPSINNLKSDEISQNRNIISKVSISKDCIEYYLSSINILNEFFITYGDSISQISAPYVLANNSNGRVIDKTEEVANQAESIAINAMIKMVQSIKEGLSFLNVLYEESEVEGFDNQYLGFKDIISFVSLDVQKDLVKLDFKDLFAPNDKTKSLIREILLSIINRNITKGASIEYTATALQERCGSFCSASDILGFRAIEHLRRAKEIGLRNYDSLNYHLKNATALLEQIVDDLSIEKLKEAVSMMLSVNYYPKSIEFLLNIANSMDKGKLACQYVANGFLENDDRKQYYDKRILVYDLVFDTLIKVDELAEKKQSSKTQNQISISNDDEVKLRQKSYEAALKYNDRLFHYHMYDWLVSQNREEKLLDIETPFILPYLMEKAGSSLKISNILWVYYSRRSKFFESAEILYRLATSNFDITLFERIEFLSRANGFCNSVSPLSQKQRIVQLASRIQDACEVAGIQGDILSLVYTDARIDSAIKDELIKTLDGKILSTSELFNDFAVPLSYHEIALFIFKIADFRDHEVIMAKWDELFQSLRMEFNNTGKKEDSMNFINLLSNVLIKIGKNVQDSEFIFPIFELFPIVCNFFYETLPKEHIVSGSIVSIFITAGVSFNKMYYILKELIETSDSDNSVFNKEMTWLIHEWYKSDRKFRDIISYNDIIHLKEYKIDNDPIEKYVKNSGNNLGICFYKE

B1: GST-Nup59 (natural protein, S. cerevisiae, UniProt Q05166 1-528, looked up)
chain: MFGIRSGNNNGGFTNLTSQAPQTTQMFQSQSQLQPQPQPQPQQQQQHLQFNGSSDASSLRFGNSLSNTVNANNYSSNIGNNSINNNNIKNGTNNISQHGQGNNPSWVNNPKKRFTPHTVIRRKTTKQNSSSDINQNDDSSSMNATMRNFSKQNQDSKHNERNKSAANNDINSLLSNFNDIPPSVTLQDWQREDEFGSIPSLTTQFVTDKYTAKKTNRSAYDSKNTPNVFDKDSYVRIANIEQNHLDNNYNTAETNNKVHETSSKSSSLSAIIVFGYPESISNELIEHFSHFGHIMEDFQVLRLGRGINPNTFRIFHNHDTGCDENDSTVNKSITLKGRNNESNNKKYPIFTGESWVKLTYNSPSSALRALQENGTIFRGSLIGCIPYSKNAVEQLAGCKIDNVDDIGEFNVSMYQNSSTSSTSNTPSPPNVIITDGTLLREDDNTPAGHAGNPTNISSPIVANSPNKRLDVIDGKLPFMQNAGPNSNIPNLLRNLESKMRQQEAKYRNNEPAGFTHKLSNWLFGWNDL
Take B1: the binding result with TAP-tagged Ndc1 was “binds”.

B2: 6xHis-MBP-Nup59 (natural protein, S. cerevisiae, UniProt Q05166 1-528, looked up)
chain: B1 chain
With B2, the binding result with TAP-Nup170 is on record as “binds”.

B3: GST-Nup53(376-475) (domain or fragment, S. cerevisiae, UniProt Q03790 376-475, looked up)
chain: KDLSNYRKTEGIFEKAKAKAVTSKVRNAEFKVSKNSTSFKNPRRLEIKDGRSLFLRNRGKIHSGVLSSIESDLKKREQASKSKKSWLNRLNNWLFGWNDL
Regarding B3, in the test with TAP-tagged Ndc1, the binding result was “binds”.

B4: 6xHis-MBP-Nup53 (natural protein, S. cerevisiae, UniProt Q03790 1-475, looked up)
chain: MADLQKQENSSRFTNVSVIAPESQGQHEQQKQQEQLEQQKQPTGLLKGLNGFPSAPQPLFMEDPPSTVSGELNDNPAWFNNPRKRAIPNSIIKRSNGQSLSPVRSDSADVPAFSNSNGFNNVTFGSKKDPRILKNVSPNDNNSANNNAHSSDLGTVVFDSNEAPPKTSLADWQKEDGIFSSKTDNIEDPNLSSNITFDGKPTATPSPFRPLEKTSRILNFFDKNTKTTPNTASSEASAGSKEGASTNWDDHAIIIFGYPETIANSIILHFANFGEILEDFRVIKDFKKLNSKNMSKSPSLTAQKYPIYTGDGWVKLTYKSELSKSRALQENGIIMNGTLIGCVSYSPAALKQLASLKKSEEIINNKTSSQTSLSSKDLSNYRKTEGIFEKAKAKAVTSKVRNAEFKVSKNSTSFKNPRRLEIKDGRSLFLRNRGKIHSGVLSSIESDLKKREQASKSKKSWLNRLNNWLFGWNDL
In the case of B4, the binding result in the test with TAP-Nup170 is “binds”.
